“And” between values parts separate entries of the source, which are not always exact repeats. Identical values can stand only once.
Biological target: T1, HER2 (human epidermal growth factor receptor 2) (human, UniProt P04626 23-629)
T1 construct: also called Antigen: HER2
Assay: SPR

Binder	Kd	log(KD (M))
Trastuzumab HCDR3 variant ARYYYGFYYFDY (Fab, V domains shown) VH: EVQLVESGGGLVQPGGSLRLSCAASGFNIKDTYIHWVRQAPGKGLEWVARIYPTNGYTRYADSVKGRFTISADTSKNTAYLQMNSLRAEDTAVYYCARYYYGFYYFDYWGQGTLVTVSS VL: not shown	1.21 nM	-8.92
Trastuzumab HCDR3 variant ARYYYYSYAMDY (Fab, V domains shown) VH: EVQLVESGGGLVQPGGSLRLSCAASGFNIKDTYIHWVRQAPGKGLEWVARIYPTNGYTRYADSVKGRFTISADTSKNTAYLQMNSLRAEDTAVYYCARYYYYSYAMDYWGQGTLVTVSS VL: not shown	6.9 nM	-8.16
Trastuzumab HCDR3 variant ATWHYGGYFMSG (Fab, V domains shown) VH: EVQLVESGGGLVQPGGSLRLSCAASGFNIKDTYIHWVRQAPGKGLEWVARIYPTNGYTRYADSVKGRFTISADTSKNTAYLQMNSLRAEDTAVYYCATWHYGGYFMSGWGQGTLVTVSS VL: not shown	22.5 nM and 22.4 nM	-7.65
Trastuzumab HCDR3 variant ATWYGGNYHMYP (Fab, V domains shown) VH: EVQLVESGGGLVQPGGSLRLSCAASGFNIKDTYIHWVRQAPGKGLEWVARIYPTNGYTRYADSVKGRFTISADTSKNTAYLQMNSLRAEDTAVYYCATWYGGNYHMYPWGQGTLVTVSS VL: not shown	11.2 nM	-7.95
Trastuzumab HCDR3 variant ATYGRDYYHFAS (Fab, V domains shown) VH: EVQLVESGGGLVQPGGSLRLSCAASGFNIKDTYIHWVRQAPGKGLEWVARIYPTNGYTRYADSVKGRFTISADTSKNTAYLQMNSLRAEDTAVYYCATYGRDYYHFASWGQGTLVTVSS VL: not shown	7.55 nM	-8.12
Trastuzumab HCDR3 variant ATYGYGYYYFDY (Fab, V domains shown) VH: EVQLVESGGGLVQPGGSLRLSCAASGFNIKDTYIHWVRQAPGKGLEWVARIYPTNGYTRYADSVKGRFTISADTSKNTAYLQMNSLRAEDTAVYYCATYGYGYYYFDYWGQGTLVTVSS VL: not shown	15.5 nM	-7.81
Trastuzumab HCDR3 variant ATYSFGAYYYVF (Fab, V domains shown) VH: EVQLVESGGGLVQPGGSLRLSCAASGFNIKDTYIHWVRQAPGKGLEWVARIYPTNGYTRYADSVKGRFTISADTSKNTAYLQMNSLRAEDTAVYYCATYSFGAYYYVFWGQGTLVTVSS VL: not shown	4.73 nM	-8.33
Trastuzumab HCDR3 variant ATYSPGAYYYGP (Fab, V domains shown) VH: EVQLVESGGGLVQPGGSLRLSCAASGFNIKDTYIHWVRQAPGKGLEWVARIYPTNGYTRYADSVKGRFTISADTSKNTAYLQMNSLRAEDTAVYYCATYSPGAYYYGPWGQGTLVTVSS VL: not shown	17.3 nM and 17.2 nM	-7.76
Trastuzumab HCDR3 variant AVSADIMYGVSV (Fab, V domains shown) VH: EVQLVESGGGLVQPGGSLRLSCAASGFNIKDTYIHWVRQAPGKGLEWVARIYPTNGYTRYADSVKGRFTISADTSKNTAYLQMNSLRAEDTAVYYCAVSADIMYGVSVWGQGTLVTVSS VL: not shown	22.9 nM	-7.64
Trastuzumab HCDR3 variant AVYSPDFYYLGY (Fab, V domains shown) VH: EVQLVESGGGLVQPGGSLRLSCAASGFNIKDTYIHWVRQAPGKGLEWVARIYPTNGYTRYADSVKGRFTISADTSKNTAYLQMNSLRAEDTAVYYCAVYSPDFYYLGYWGQGTLVTVSS VL: not shown	2.06 nM	-8.69
Trastuzumab HCDR3 variant STYARDYYHFGS (Fab, V domains shown) VH: EVQLVESGGGLVQPGGSLRLSCAASGFNIKDTYIHWVRQAPGKGLEWVARIYPTNGYTRYADSVKGRFTISADTSKNTAYLQMNSLRAEDTAVYYCSTYARDYYHFGSWGQGTLVTVSS VL: not shown	12.6 nM	-7.9
Trastuzumab HCDR3 variant TRFLIGSYYYDY (Fab, V domains shown) VH: EVQLVESGGGLVQPGGSLRLSCAASGFNIKDTYIHWVRQAPGKGLEWVARIYPTNGYTRYADSVKGRFTISADTSKNTAYLQMNSLRAEDTAVYYCTRFLIGSYYYDYWGQGTLVTVSS VL: not shown	11.6 nM	-7.93
Trastuzumab HCDR3 variant TRFRSFFYNFDY (Fab, V domains shown) VH: EVQLVESGGGLVQPGGSLRLSCAASGFNIKDTYIHWVRQAPGKGLEWVARIYPTNGYTRYADSVKGRFTISADTSKNTAYLQMNSLRAEDTAVYYCTRFRSFFYNFDYWGQGTLVTVSS VL: not shown	5.4 nM	-8.27
Trastuzumab HCDR3 variant TRNSFGFYAMDY (Fab, V domains shown) VH: EVQLVESGGGLVQPGGSLRLSCAASGFNIKDTYIHWVRQAPGKGLEWVARIYPTNGYTRYADSVKGRFTISADTSKNTAYLQMNSLRAEDTAVYYCTRNSFGFYAMDYWGQGTLVTVSS VL: not shown	19 nM	-7.72
Trastuzumab HCDR3 variant TRYGAPYFYFDY (Fab, V domains shown) VH: EVQLVESGGGLVQPGGSLRLSCAASGFNIKDTYIHWVRQAPGKGLEWVARIYPTNGYTRYADSVKGRFTISADTSKNTAYLQMNSLRAEDTAVYYCTRYGAPYFYFDYWGQGTLVTVSS VL: not shown	18 nM	-7.75
Trastuzumab HCDR3 variant TRYGGGYYYFDY (Fab, V domains shown) VH: EVQLVESGGGLVQPGGSLRLSCAASGFNIKDTYIHWVRQAPGKGLEWVARIYPTNGYTRYADSVKGRFTISADTSKNTAYLQMNSLRAEDTAVYYCTRYGGGYYYFDYWGQGTLVTVSS VL: not shown	3.59 nM	-8.45

Binder	Kd	log(KD (M))
Trastuzumab HCDR3 variant TRYGSYYYYFDY (Fab, V domains shown) VH: EVQLVESGGGLVQPGGSLRLSCAASGFNIKDTYIHWVRQAPGKGLEWVARIYPTNGYTRYADSVKGRFTISADTSKNTAYLQMNSLRAEDTAVYYCTRYGSYYYYFDYWGQGTLVTVSS VL: not shown	3.18 nM	-8.5
Trastuzumab HCDR3 variant TRYGYGYYYFDY (Fab, V domains shown) VH: EVQLVESGGGLVQPGGSLRLSCAASGFNIKDTYIHWVRQAPGKGLEWVARIYPTNGYTRYADSVKGRFTISADTSKNTAYLQMNSLRAEDTAVYYCTRYGYGYYYFDYWGQGTLVTVSS VL: not shown	2.73 nM	-8.56
Trastuzumab HCDR3 variant TRYGYGYYYMDY (Fab, V domains shown) VH: EVQLVESGGGLVQPGGSLRLSCAASGFNIKDTYIHWVRQAPGKGLEWVARIYPTNGYTRYADSVKGRFTISADTSKNTAYLQMNSLRAEDTAVYYCTRYGYGYYYMDYWGQGTLVTVSS VL: not shown	5.25 nM	-8.28
Trastuzumab HCDR3 variant TRYYYGLYYFDY (Fab, V domains shown) VH: EVQLVESGGGLVQPGGSLRLSCAASGFNIKDTYIHWVRQAPGKGLEWVARIYPTNGYTRYADSVKGRFTISADTSKNTAYLQMNSLRAEDTAVYYCTRYYYGLYYFDYWGQGTLVTVSS VL: not shown	3.02 nM	-8.52
Trastuzumab HCDR3 variant VRWGGYYYYFDY (Fab, V domains shown) VH: EVQLVESGGGLVQPGGSLRLSCAASGFNIKDTYIHWVRQAPGKGLEWVARIYPTNGYTRYADSVKGRFTISADTSKNTAYLQMNSLRAEDTAVYYCVRWGGYYYYFDYWGQGTLVTVSS VL: not shown	6.35 nM	-8.2
Trastuzumab HCDR3 variant VRWRSDFYYFDY (Fab, V domains shown) VH: EVQLVESGGGLVQPGGSLRLSCAASGFNIKDTYIHWVRQAPGKGLEWVARIYPTNGYTRYADSVKGRFTISADTSKNTAYLQMNSLRAEDTAVYYCVRWRSDFYYFDYWGQGTLVTVSS VL: not shown	4.95 nM	-8.31
Trastuzumab HCDR3 variant VRYGGDYYYFDY (Fab, V domains shown) VH: EVQLVESGGGLVQPGGSLRLSCAASGFNIKDTYIHWVRQAPGKGLEWVARIYPTNGYTRYADSVKGRFTISADTSKNTAYLQMNSLRAEDTAVYYCVRYGGDYYYFDYWGQGTLVTVSS VL: not shown	21.9 nM	-7.66
Trastuzumab HCDR3 variant VRYGGGYYYFDV (Fab, V domains shown) VH: EVQLVESGGGLVQPGGSLRLSCAASGFNIKDTYIHWVRQAPGKGLEWVARIYPTNGYTRYADSVKGRFTISADTSKNTAYLQMNSLRAEDTAVYYCVRYGGGYYYFDVWGQGTLVTVSS VL: not shown	3.96 nM	-8.4
Trastuzumab HCDR3 variant VRYGGTYYYFDY (Fab, V domains shown) VH: EVQLVESGGGLVQPGGSLRLSCAASGFNIKDTYIHWVRQAPGKGLEWVARIYPTNGYTRYADSVKGRFTISADTSKNTAYLQMNSLRAEDTAVYYCVRYGGTYYYFDYWGQGTLVTVSS VL: not shown	15.4 nM	-7.81
Trastuzumab HCDR3 variant VRYGYDYYWFDY (Fab, V domains shown) VH: EVQLVESGGGLVQPGGSLRLSCAASGFNIKDTYIHWVRQAPGKGLEWVARIYPTNGYTRYADSVKGRFTISADTSKNTAYLQMNSLRAEDTAVYYCVRYGYDYYWFDYWGQGTLVTVSS VL: not shown	10.4 nM	-7.98
Trastuzumab HCDR3 variant VRYGYGYYAMDY (Fab, V domains shown) VH: EVQLVESGGGLVQPGGSLRLSCAASGFNIKDTYIHWVRQAPGKGLEWVARIYPTNGYTRYADSVKGRFTISADTSKNTAYLQMNSLRAEDTAVYYCVRYGYGYYAMDYWGQGTLVTVSS VL: not shown	10.7 nM	-7.97
Trastuzumab HCDR3 variant VRYGYGYYYFDY (Fab, V domains shown) VH: EVQLVESGGGLVQPGGSLRLSCAASGFNIKDTYIHWVRQAPGKGLEWVARIYPTNGYTRYADSVKGRFTISADTSKNTAYLQMNSLRAEDTAVYYCVRYGYGYYYFDYWGQGTLVTVSS VL: not shown	2.77 nM	-8.56
Trastuzumab HCDR3 variant VRYGYGYYYMDY (Fab, V domains shown) VH: EVQLVESGGGLVQPGGSLRLSCAASGFNIKDTYIHWVRQAPGKGLEWVARIYPTNGYTRYADSVKGRFTISADTSKNTAYLQMNSLRAEDTAVYYCVRYGYGYYYMDYWGQGTLVTVSS VL: not shown	5.48 nM	-8.26
Trastuzumab HCDR3 variant VTYGTTYYHFGS (Fab, V domains shown) VH: EVQLVESGGGLVQPGGSLRLSCAASGFNIKDTYIHWVRQAPGKGLEWVARIYPTNGYTRYADSVKGRFTISADTSKNTAYLQMNSLRAEDTAVYYCVTYGTTYYHFGSWGQGTLVTVSS VL: not shown	24.1 nM	-7.62
Trastuzumab HCDR3 variant ARYGGYGGYYFDY (Fab, V domains shown) VH: EVQLVESGGGLVQPGGSLRLSCAASGFNIKDTYIHWVRQAPGKGLEWVARIYPTNGYTRYADSVKGRFTISADTSKNTAYLQMNSLRAEDTAVYYCARYGGYGGYYFDYWGQGTLVTVSS VL: not shown	14 nM	-7.85
Trastuzumab HCDR3 variant AATYGGLGDMSSI (Fab, V domains shown) VH: EVQLVESGGGLVQPGGSLRLSCAASGFNIKDTYIHWVRQAPGKGLEWVARIYPTNGYTRYADSVKGRFTISADTSKNTAYLQMNSLRAEDTAVYYCAATYGGLGDMSSIWGQGTLVTVSS VL: not shown	27 nM	-7.57
